From paper PMC9674263 (Proceedings of the National Academy of Sciences of the …, 2022) come the findings set out here.

The series concerns the molecule itself. The experiment in a line: native gel or EMSA. A general note: A gel shift assay detects complexes by their altered migration in electrophoresis.

B1: endogenous PLOD2 of HCC38 cells (enzyme, human (endogenous in HCC38), UniProt O00469 26-737, looked up)
chain: ADSEKPSSIPTDKLLVITVATKESDGFHRFMQSAKYFNYTVKVLGQGEEWRGGDGINSIGGGQKVRLMKEVMEHYADQDDLVVMFTECFDVIFAGGPEEVLKKFQKANHKVVFAADGILWPDKRLADKYPVVHIGKRYLNSGGFIGYAPYVNRIVQQWNLQDNDDDQLFYTKVYIDPLKREAINITLDHKCKIFQTLNGAVDEVVLKFENGKARAKNTFYETLPVAINGNGPTKILLNYFGNYVPNSWTQDNGCTLCEFDTVDLSAVDVHPNVSIGVFIEQPTPFLPRFLDILLTLDYPKEALKLFIHNKEVYHEKDIKVFFDKAKHEIKTIKIVGPEENLSQAEARNMGMDFCRQDEKCDYYFSVDADVVLTNPRTLKILIEQNRKIIAPLVTRHGKLWSNFWGALSPDGYYARSEDYVDIVQGNRVGVWNVPYMANVYLIKGKTLRSEMNERNYFVRDKLDPDMALCRNAREMGVFMYISNRHEFGRLLSTANYNTSHYNNDLWQIFENPVDWKEKYINRDYSKIFTENIVEQPCPDVFWFPIFSEKACDELVEEMEHYGKWSGGKHHDSRISGGYENVPTDDIHMKQVDLENVWLHFIREFIAPVTLKVFAGYYTKGFALLNFVVKYSPERQRSLRPHHDASTFTINIALNNVGEDFQGGGCKFLRYNCSIESPRKGWSFMHPGRLTHLHEGLPVKNGTRYIAVSFIDP
B1: the stoichiometry N (in general, the number of molecules, sites or subunits per partner or assembly) is 2.
